The source of these data is PMC4569521 (Journal of molecular biology, 2015).

Where no end group is shown, it is not given here. fluorescein = fluorescein label at the N-terminus

This test has as its target T1, N-domain of ClpX (residue 1–64) (E. coli, UniProt P0A6H1 1-64).
T1 sequence (looked up): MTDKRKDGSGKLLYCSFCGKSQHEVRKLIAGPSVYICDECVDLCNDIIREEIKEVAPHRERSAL
Nature of the test: fluorescence polarisation.

Molecule fluorescein-ESRIVGIFRPSGNTERVKNQ [fluorescein-labeled E-tag peptide (MuA residues 614–633)] came in with a Kd of about 380 µM.
